pKd: −log10 of the molar value. Where “and” joins values, the source holds several entries; their conditions need not be identical. Equal values may be shown once. Read-outs that look alike come from different tables or passages of the source. Blank lines part the entries; values can stand above or below the substance they belong to.
What was measured:
[1] = target: FAM-labeled, EndoH-digested GluA2S amino-terminal domain; experiment: AUC
[2] = target: FAM-labeled, EndoH-digested GluA2S amino-terminal domain; experiment: AUC; remark: listed apart in the source
[3] = target: FAM-labeled, EndoH-digested GluA2S amino-terminal domain; experiment: AUC; remark: listed apart in the source
[4] = target: GluA2S amino-terminal domain expressed in GnTI- cells and digested with EndoH; experiment: dynamic light scattering
[5] = target: GluA2S amino-terminal domain expressed in GnTI- cells and digested with EndoH; experiment: AUC
[6] = target: GluA2S amino-terminal domain expressed in GnTI- cells and digested with EndoH; experiment: SEC-MALS
[7] = target: GluA2S amino-terminal domain expressed in GnTI- cells and digested with EndoH; experiment: AUC; remark: listed apart in the source
[8] = target: GluA2S amino-terminal domain expressed in GnTI- cells and digested with EndoH; experiment: AUC; remark: listed apart in the source
[9] = target: GluA2S amino-terminal domain expressed in GnTI- cells and digested with EndoH; experiment: AUC; remark: listed apart in the source
[10] = target: GluA2S amino-terminal domain expressed in GnTI- cells and digested with EndoH; experiment: AUC; remark: listed apart in the source
[11] = target: DyLight405-labeled, EndoH-digested GluA2S amino-terminal domain; experiment: fluorescence polarisation
[12] = target: DyLight405-labeled, EndoH-digested GluA2S amino-terminal domain; experiment: fluorescence polarisation; remark: listed apart in the source
[13] = target: GluA2S amino-terminal domain expressed in GnTI- cells and digested with EndoH; experiment: AUC; remark: listed apart in the source
[14] = target: GluA2S amino-terminal domain expressed in HEK293S GnTI- cells (high mannose glycans); experiment: SEC-MALS
[15] = target: GluA2S amino-terminal domain expressed in HEK293S GnTI- cells (high mannose glycans); experiment: AUC
[16] = target: GluA2S amino-terminal domain expressed in HEK293T cells (complex glycosylation); experiment: dynamic light scattering
[17] = target: GluA2S amino-terminal domain expressed in HEK293T cells (complex glycosylation); experiment: SEC-MALS
[18] = target: GluA2S amino-terminal domain expressed in HEK293T cells (complex glycosylation); experiment: AUC
[19] = target: GluA2S amino-terminal domain expressed in HEK293T cells (complex glycosylation); experiment: AUC; remark: listed apart in the source
[20] = target: GluA3 amino-terminal domain expressed in HEK293T cells (UniProt P19492); experiment: AUC
[21] = target: GluA3 amino-terminal domain expressed in HEK293T cells (UniProt P19492); experiment: AUC; remark: listed apart in the source

Sequence of GluA2S amino-terminal domain expressed in GnTI- cells and digested with EndoH (P19491 22-883): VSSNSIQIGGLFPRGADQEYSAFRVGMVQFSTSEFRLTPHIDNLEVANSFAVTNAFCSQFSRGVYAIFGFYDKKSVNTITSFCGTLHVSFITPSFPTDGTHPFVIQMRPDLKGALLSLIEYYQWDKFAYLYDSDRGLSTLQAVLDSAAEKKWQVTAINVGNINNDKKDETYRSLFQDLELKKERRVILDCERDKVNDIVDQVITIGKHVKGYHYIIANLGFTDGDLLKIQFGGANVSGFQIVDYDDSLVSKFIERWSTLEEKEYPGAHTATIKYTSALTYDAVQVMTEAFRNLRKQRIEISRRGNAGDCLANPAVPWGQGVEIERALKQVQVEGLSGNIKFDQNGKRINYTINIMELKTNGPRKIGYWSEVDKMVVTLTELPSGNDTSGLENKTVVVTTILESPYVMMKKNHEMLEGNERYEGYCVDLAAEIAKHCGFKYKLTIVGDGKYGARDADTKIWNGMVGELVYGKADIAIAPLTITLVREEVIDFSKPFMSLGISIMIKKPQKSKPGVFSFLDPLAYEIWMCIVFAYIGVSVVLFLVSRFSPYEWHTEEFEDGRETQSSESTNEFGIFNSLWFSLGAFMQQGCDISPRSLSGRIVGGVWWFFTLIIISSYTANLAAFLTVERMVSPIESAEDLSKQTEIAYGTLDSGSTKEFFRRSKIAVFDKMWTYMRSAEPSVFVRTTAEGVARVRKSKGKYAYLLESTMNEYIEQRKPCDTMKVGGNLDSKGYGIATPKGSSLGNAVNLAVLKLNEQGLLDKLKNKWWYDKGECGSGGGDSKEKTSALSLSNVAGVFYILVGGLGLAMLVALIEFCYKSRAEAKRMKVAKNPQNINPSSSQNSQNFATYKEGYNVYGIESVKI
Sequence of GluA2S amino-terminal domain expressed in HEK293T cells (complex glycosylation) (P19491 22-883, one chain of several): as the sequence (P19491 22-883) above
Sequence of FAM-labeled, EndoH-digested GluA2S amino-terminal domain (P19491 22-883): as above
Sequence of GluA2S amino-terminal domain expressed in HEK293S GnTI- cells (high mannose glycans) (P19491 22-883): as above

Substance: GluA2S amino-terminal domain expressed in HEK293S GnTI- cells (high mannose glycans) (domain or fragment)
- stoichiometry N [14]: 2
- pKd [15]: 7.96

Substance: GluA2S amino-terminal domain expressed in HEK293T cells (complex glycosylation) (domain or fragment)
- stoichiometry N [16]: 2
- stoichiometry N [17]: 2
- pKd [18]: 8.22
- pKd [19]: 8.08

Other lines, results leading:

- pKd [1]: 7.83
- pKd [2]: 7.59
- pKd [3]: 8.28
Substance: FAM-labeled, EndoH-digested GluA2S amino-terminal domain (domain or fragment)

- stoichiometry N [4]: 2
- pKd [5]: 7.77
- stoichiometry N [6]: 2
- pKd [7]: < 2.60
- pKd [8]: 7.52
- pKd [9]: 6.24
- pKd [10]: 6.80 and 6.55
- pKd [11]: 7.97 and 7.95 and 8.07
- pKd [12]: 8.01
- pKd [13]: 8.25 and 8.08 and 8.01
Substance: GluA2S amino-terminal domain expressed in GnTI- cells and digested with EndoH (domain or fragment)

- pKd [20]: < 3.79
- pKd [21]: 5.51
Substance: GluA3 amino-terminal domain expressed in HEK293T cells (from UniProt P19492 23-888) (domain or fragment)
